The record followed here is patent US20240342298A1, “METHODS OF TREATING TUMORS BY USING MOLECULAR CONSTRUCT” (Immunwork Inc., priority 2023, published 2024).

The test system of one test is MM.1S cells. Nature of the test: alamarBlue cell viability assay, MM.1S cells. Type of test: cell-based, human. The settings on record: even at doses >20 μM. On the procedure:
(§1) Briefly, H929, U266-CD38^−, MM.1S, and Daudi cells were seeded at 5,000 cells/well in 96-well plates and co-cultured with fresh medium containing different test articles with the indicated concentrations at 37° C. for 5 hours, 1 day, 3 days, or 5 days. The viabilities of the cells were determined by alamarBlue™ cell viability reagent. About 10 μl alamarBlue™ cell viability reagent was added to the cells with a final concentration of 10% v/v, followed by incubating at 37° C. for 1.5 hours. The fluorescence was measured on a microplate reader in arbitrary fluorescent units following excitation at 560 nm and emission at 590 nm.
(§2) H929 cells were incubated for 5 hours, 1 day, 3 days, or 5 days (FIGS. 12A-12D), and MM.1S, U266-CD38-, and Daudi cells were incubated for 5 days (FIGS. 12E-12G). Then, cell viability was determined.

The target in a further test is T1, human CD38 (Homo sapiens, UniProt P28907).
T1 construct: The cDNA of full-length human CD38 was cloned into pCDH-CMV-MCS-Ef1α-Puro expression vector; expressed in transfected cells; host or cells: HEK293T (lentiviral transduction with pCDH-CMV-CD38, puromycin selection)
Nature of the test: cell-based ELISA binding to human CD38-overexpressing 293T cells. As to the method: The cDNA of full-length human CD38 was cloned into pCDH-CMV-MCS-Ef1α-Puro expression vector to generate lentiviral-based CD38-expressing plasmid, pCDH-CMV-CD38. Lentivirus was packaged by co-transfecting pCDH-CMV-CD38, pCMV-VSV-G, and pCMV8R8.91 into HEK293T cells. Human CD38-overexpressing HEK293T cells were transduced with lentivirus infection and cultured with 1 μg/mL puromycin three days post-infection.
On the technique in general: In an ELISA, binding on a coated surface is turned into a signal by an enzyme label.

The next test has as its system H929 cells. Nature of the test: alamarBlue cell viability assay, H929 cells. Type of test: cell-based, human. The conditions noted are these: even at doses >20 μM. As to the method: as §1, §2
The subject of the next test is U266-CD38- cells. Nature of the test: alamarBlue cell viability assay, U266-CD38- cells. Type of test: cell-based. The settings on record: 5 days, FIG. 12F. On the procedure: as §1, §2
For orientation: Alamar Blue is a resazurin reagent that responds to reducing activity.

As usually defined, the EC50 is the midpoint of the concentration-response curve. High values mean a need for much substance, low ones an effect from little substance.

B1: 2-chain (anti-CD38 scFv)-hIgG1.Fc-(Gly)3-BM fusion protein: dimer of (anti-CD38 scFv)-hIgG1.Fc-(Gly)3-BM, SEQ ID NO: 12; scFv VL and VH derived from daratumumab (protein)
chain: EIVLTQSPATLSLSPGERATLSCRASQSVSSYLAWYQQKPGQAPRLLIYDASNRATGIPARFSGSGSGTDFTLTISSLEPEDFAVYYCQQRSNWPPTFGQGTKVEIKGSTSGSGKPGSGEGSTKGEVQLLESGGGLVQPGGSLRLSCAVSGFTFNSFAMSWVRQAPGKGLEWVSAISGSGGGTYYADSVKGRFTISRDNSKNTLYLQMNSLRAEDTAVYFCAKDKILWFGEPVFDYWGQGTLVTVSSGGGASDKTHTCPPCPAPELLGGPSVFLFPPKPKDTLMISRTPEVTCVVVDVSHEDPEVKFNWYVDGVEVHNAKTKPREEQYNSTYRVVSVLTVLHQDWLNGKDYKCKVSNKALPAPIEKTISKAKGQPREPQVYTLPPSRDELTRNQVSLTCLVKGFYPSDIAVEWESNGQPENNYKTTPPVLDSDGSFFLYSKLTVDKSRWQQGNVFSCSVMHEALHNHYTQKSLSLSPGGGGACPGHA
modifications: homodimer
notes: scFv VL and VH derived from daratumumab
On to B1, for which the “effect of cell death” value in the test on MM.1S cells and with H929 cells was “no effect of cell death” throughout. For the same molecule, the EC50 with human CD38 came out at 0.84 nM. Moreover, the killing effect entry with U266-CD38- cells is “did not possess any killing effect”.
